Among the data in article PMC5629633 are Km values, retold here.

The test system of this data set is NC(=O)CC[C@H](N)C(=O)O. Kind of data set: purified protein. Conditions: pH 8.0, 30 °C, 11 mM MgCl2, co-substrate ATP.

By Km is commonly meant the substrate concentration at which the rate is half of its maximum.

For the substance “Cj1418 (L-glutamine kinase) (Campylobacter jejuni subsp. jejuni NCTC 11168 = ATCC 700819)”, the Km turned out to be 640 ± 60 µM.
